Columns and labels:
[1] = molecular target: VEGF (vascular endothelial growth factor) (Homo sapiens, UniProt P15692-4 P15692-4:27-191); test: ELONA; 95% CI 0.19-0.33 nM, N=6; VEGF titration in sandwich with capture antibody, ligand 400 nM as detector, room temperature; 0.236 nM in Superblock/TBS-Tween variant; conditions: tags: R&D Systems recombinant human VEGF; chain copies: 2; label: 3'-biotin
[2] = molecular target: hCG (human chorionic gonadotropin) (Homo sapiens, UniProt P01215;P0DN86 P01215:25-116,P0DN86:21-165); test: ELONA; RNA as capture molecule in TEM buffer; detection down to 200 mIU (340 pM); conditions: tags: Vitro Diagnostics, 14,000 IU/mg, Mr 42,000; label: 5'-biotin (GDP-beta-S, iodoacetyl-LC-biotin)
Chain of hCG (human chorionic gonadotropin) (P01215 25-116, chain 1 of 2, other chains not shown): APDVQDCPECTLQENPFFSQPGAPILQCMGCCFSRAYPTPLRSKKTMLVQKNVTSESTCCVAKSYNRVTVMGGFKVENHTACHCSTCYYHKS

[3] = molecular target: hTSH (human thyroid stimulating hormone) (Homo sapiens, UniProt P01215;P01222 P01215:25-116,P01222:21-132); test: ELONA; RNA as capture molecule in TEM buffer; signals analogous to commercial ELISA; conditions: tags: Becton Dickinson, 9 IU/mg, Mr 27,700; label: 5'-biotin (GDP-beta-S, iodoacetyl-LC-biotin)
Chain of hTSH (human thyroid stimulating hormone) (P01215 25-116, chain 1 of 2): as the sequence (P01215 25-116, chain 1 of 2, other chains not shown) above
Chain of hTSH (human thyroid stimulating hormone) (P01222 21-132, chain 2 of 2): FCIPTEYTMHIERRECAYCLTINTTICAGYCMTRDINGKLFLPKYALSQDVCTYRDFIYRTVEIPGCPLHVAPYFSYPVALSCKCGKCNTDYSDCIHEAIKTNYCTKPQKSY

Chain of VEGF (vascular endothelial growth factor) (P15692 other isoform, or with tags, fused parts or gaps): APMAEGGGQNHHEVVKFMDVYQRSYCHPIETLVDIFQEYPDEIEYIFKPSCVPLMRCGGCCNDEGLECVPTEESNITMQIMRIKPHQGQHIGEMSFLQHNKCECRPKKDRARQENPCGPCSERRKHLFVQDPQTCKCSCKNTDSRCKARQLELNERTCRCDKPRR

**Q.** ACCCUGAUGGUAGACGCCGGG (ssRNA, 2'-NH2 pyrimidines) [VEGF-NeXamer] was tested. Which EC50 [1] did it give?
**A.** 0.25 nM

B1: H-42 (ssRNA)
RNA: GGGAGGACGAUGCGGACAAGGGCCUGAGUGUGGAGGGCACGUGGAGGGGACUGGCCAGACGACUCGCCCGA
modifications: 2'-NH2 on all C and U
**Q.** Does B1 bind [2]?
**A.** binds

B2: T-15 (ssRNA)
RNA: GGGAGGACGAUGCGGAUGUUGGCAGCAGGGUCCGACGGCGUAACCUUGCCAGCUGCAGACGACUCGCCCGA
modifications: 2'-NH2 on all C and U
**Q.** Does B2 bind [3]?
**A.** binds
